The target in one assay is T1, STAT 1 protein (UniProt P42224 1-750, limits assumed).
T1 sequence (looked up): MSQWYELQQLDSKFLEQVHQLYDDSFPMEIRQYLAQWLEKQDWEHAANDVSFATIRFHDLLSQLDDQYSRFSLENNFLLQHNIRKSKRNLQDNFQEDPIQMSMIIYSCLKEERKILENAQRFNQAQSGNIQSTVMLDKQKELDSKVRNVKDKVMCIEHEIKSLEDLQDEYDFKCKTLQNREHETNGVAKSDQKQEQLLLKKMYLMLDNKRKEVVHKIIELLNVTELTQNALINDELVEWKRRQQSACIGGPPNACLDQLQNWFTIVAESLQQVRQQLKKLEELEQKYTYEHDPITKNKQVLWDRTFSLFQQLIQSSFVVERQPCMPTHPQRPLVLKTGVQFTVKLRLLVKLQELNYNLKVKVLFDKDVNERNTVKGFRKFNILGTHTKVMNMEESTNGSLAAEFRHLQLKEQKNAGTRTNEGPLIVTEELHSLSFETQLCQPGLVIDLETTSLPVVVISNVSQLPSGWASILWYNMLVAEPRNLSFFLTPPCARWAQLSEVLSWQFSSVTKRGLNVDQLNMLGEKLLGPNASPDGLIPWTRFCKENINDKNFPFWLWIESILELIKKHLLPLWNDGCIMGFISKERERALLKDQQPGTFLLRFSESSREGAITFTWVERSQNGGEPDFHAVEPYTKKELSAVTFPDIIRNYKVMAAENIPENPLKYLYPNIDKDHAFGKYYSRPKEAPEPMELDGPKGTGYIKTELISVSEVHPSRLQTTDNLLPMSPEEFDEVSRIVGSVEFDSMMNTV
In words: sandwich ELISA, STAT protein coated at 0.5 µg/mL. In general terms: An ELISA detects its analyte on a solid surface through an enzyme-linked reagent.

The next assay concerns the target STAT 2 protein (UniProt P52630 1-851, limits assumed). In words: sandwich ELISA, STAT protein coated at 0.5 µg/mL.

This note sets out measurements from patent US20170327598A1 (published 2017).

Chain of STAT 2 protein (P52630 whole entry): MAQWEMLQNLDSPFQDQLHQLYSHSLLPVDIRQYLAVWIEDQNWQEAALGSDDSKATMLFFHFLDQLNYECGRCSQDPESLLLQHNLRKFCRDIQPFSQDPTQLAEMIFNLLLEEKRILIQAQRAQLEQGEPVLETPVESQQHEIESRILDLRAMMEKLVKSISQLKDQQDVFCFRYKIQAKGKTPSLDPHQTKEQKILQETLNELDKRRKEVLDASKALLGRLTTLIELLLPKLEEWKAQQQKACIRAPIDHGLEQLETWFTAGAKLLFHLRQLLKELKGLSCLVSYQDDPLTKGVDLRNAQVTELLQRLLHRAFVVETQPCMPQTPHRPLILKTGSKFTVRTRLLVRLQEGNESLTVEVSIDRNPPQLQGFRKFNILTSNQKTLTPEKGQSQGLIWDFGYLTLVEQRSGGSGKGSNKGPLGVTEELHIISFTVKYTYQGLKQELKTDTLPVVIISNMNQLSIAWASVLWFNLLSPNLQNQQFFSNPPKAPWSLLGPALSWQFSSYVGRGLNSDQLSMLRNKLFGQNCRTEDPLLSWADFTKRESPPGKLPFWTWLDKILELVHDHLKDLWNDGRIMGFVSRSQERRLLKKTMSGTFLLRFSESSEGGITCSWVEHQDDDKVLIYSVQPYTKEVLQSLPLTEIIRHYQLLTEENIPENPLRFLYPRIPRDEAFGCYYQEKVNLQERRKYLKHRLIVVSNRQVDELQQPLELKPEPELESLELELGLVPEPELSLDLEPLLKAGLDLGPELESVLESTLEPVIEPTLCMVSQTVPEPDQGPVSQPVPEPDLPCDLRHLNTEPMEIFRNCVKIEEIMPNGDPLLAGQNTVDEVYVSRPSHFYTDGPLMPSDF

B1: anti-STAT3 VHH13 (SEQ ID NO:3) sdAb (VHH)
VHH: HVQLVESGGGSVQAGGSLRLSCAASGANGGRSCMGWFRQVPGKEREGVSGISTGGLITYYADSVKGRFTISQDNTKNTLYLQMNSLKPEDTAMYYCATSRFDCYRGSWFNRYMYNSWGQGTQVTVSS
For the molecule B1, the “Mean OD450” value with STAT 1 protein came out at 1.94 OD450; with STAT 2 protein it was 1.85 OD450.
